Test results published in patent US9206242B2, “Application of actin-binding protein to disease associated with cell motility” (NATIONAL UNIVERSITY CORPORATION NAGOYA UNIVERSITY, priority 2005, dated 2015).

Legend:
[1] = test system: phosphorylation of Girdin; test: EGF-induced phosphorylation of endogenous Girdin in COS7 cells (immunoprecipitation, Western blot with anti-P-Girdin antibody); type: cell-based; details: EGF 50 ng/ml 15 min, PD98059 50 μM
Description: Immunoprecipitates with anti-Girdin antibody were subjected to Western blot analyses with anti-P-Girdin and anti-Girdin antibodies. Activation of Akt was monitored by Western blot analyses with anti-phospho Akt antibody.
COS7 cells were transfected with either control or Akt siRNAs, and incubated for 48 hrs. Cells were then stimulated with EGF for 30 min and the phosphorylation of Girdin was analyzed as described in FIG. 2e.
Next, whether the anti-P-Girdin Ab can detect the endogenous Girdin phosphorylated in response to external stimuli that physiologically activate endogenous Akt was given consideration to. […] Furthermore, the phosphorylation of Girdin was inhibited when cells were treated with the PI3K inhibitors LY294002 and Wortmannin, but not with the mitogen-activated protein kinase kinase 1 (MEK1) inhibitor PD98059. It has therefore been concluded that the phosphorylation of Girdin is induced by EGF in a PI3K-dependent manner. […] Moreover, Girdin phosphorylation was undetectable in the cells transfected with Akt small interfering RNA (Akt siRNA). These findings confirmed that Akt activation is necessary for Girdin phosphorylation.

[2] = target: F-actin; test: F-actin cosedimentation assay; type: binding
Description: A fixed amount of GST-CT2 was mixed with various amounts of F-actin, followed by ultracentrifugation. Amounts of the free and bound GST-CT2 were quantified, and the percentage of bound GST-CT2 was plotted against the concentration of F-actin, and the Kd value was calculated by Scatchard analysis.
GST-CT was phosphorylated by Akt in vitro (cf. FIG. 6d, (b)) and was subjected to an actin cosedimentation assay. A fixed amount of GST-CT was phosphorylated in vitro and mixed with various amounts of F-actin, followed by ultracentrifugation. The amount of phosphorylated GST-CT bound to F-actin in the pellet fraction was monitored by Western blot analyses with anti-P-Girdin antibody.
F-actin cosedimentation assays were performed according to the manufacturer's protocol (Cytoskeleton). […] The cosedimented proteins were resolved by SDS-PAGE and detected by either Coomassie Brilliant Blue (CBB) staining or Western blot analyses using anti-GST antibody (Cell Signaling Technology) or anti-phospho Girdin Ab. For quantitative analyses, a fixed concentration of GST-Girdin CT2 (1 μM) was mixed with increasing amounts of F-actin (0-2.5 μM) in polymerization buffer and incubated at room temperature for 30 min. […] Protein bands were detected by CBB staining, and scanned and quantified using the software program WinROOF (Mitani Corp., Fukui, Japan).

[3] = Protein-lipid overlay assay (PIP-Strip), PI(3)P; type: binding; details: 4° C.
Description: (§1) The lipid binding of both GST-CT and GST-CT ΔPB was detected using anti-Girdin antibody, whereas that of phosphorylated GST-CT was detected by anti-P-Girdin antibody. The various lipids spotted on the membrane are indicated in (d).
(§2) GST fusion proteins were expressed in DH5 ? or BL21-CodonPlus (Stratagene) cells and purified using conventional methods. Binding of the purified GST-CT to phospholipids was examined at 4° C. using a PIP-Strip (Echelon Bioscience) according to the manufacturer's protocol. Bound GST-CT proteins were detected with either anti-Girdin or anti-phospho Girdin antibodies.

[4] = Protein-lipid overlay assay (PIP-Strip), PI(4)P; type: binding; details: 4° C.
Description: as §1, §2

## COc1cccc(-c2cc(=O)c3ccccc3o2)c1N [PD98059]
[1]
  phosphorylation of Girdin: not

B1: GST-CT2: purified glutathione S-transferase (GST)-fused CT2, C-terminal half of the Girdin CT domain (protein)
chain: GEFSLLHDHEAWSSSGSSPIQYLKRQTRSSPVLQHKISETLESRHHKIKTGSPGSEVVTLQQFLEESNKLTSVQIKSSSQENLLDEVMKSLSVSSDFLGKDKPVSCGLARSVSGKTPGDFYDRRTTKPEFLRPGPRKTEDTYFISSAGKPTPGTQGKIKLVKESSLSRQSKDSNPYATLPRASSVISTAEGTTRRTSIHDFLTKDSRLPISVDSPPAAADSNTTAASNVDKVQESRNSKSRSREQQSS
modifications: left off: a dimerising Fc or GST
notes: purified glutathione S-transferase (GST)-fused CT2, C-terminal half of the Girdin CT domain
[2]; GST-CT2 1 μM, F-actin 0-2.5 μM, Scatchard analysis, read-out: dissociation constant (Kd) for F-actin
  Kd: 1030 nM

B2: phosphorylated GST-CT: purified GST-CT phosphorylated by Akt in vitro (protein)
chain: IMDQYKFYDPSPPRRRGNWITLKMRKLIKSKKDINRERQKSLTLTPTRSDSSEGFLQLPHQDSQDSSSVGSNSLEDGQTLGTKKSSMVALKRLPFLRNRPKDKDKMKACYRRSMSMNDLVQSMVLAGQWTGSTENLEVPDDISTGKRRKELGAMAFSTTAINFSTVNSSAGFRSKQLVNNKDTTSFEDISPQGVSDDSSTGSRVHASRPASLDSGRTSTSNSNNNASLHEVKAGAVNNQSRPQSHSSGEFSLLHDHEAWSSSGSSPIQYLKRQTRSSPVLQHKISETLESRHHKIKTGSPGSEVVTLQQFLEESNKLTSVQIKSSSQENLLDEVMKSLSVSSDFLGKDKPVSCGLARSVSGKTPGDFYDRRTTKPEFLRPGPRKTEDTYFISSAGKPTPGTQGKIKLVKESSLSRQSKDSNPYATLPRASSVISTAEGTTRRTSIHDFLTKDSRLPISVDSPPAAADSNTTAASNVDKVQESRNSKSRSREQQSS
modifications: left off: a dimerising Fc or GST
notes: purified GST-CT phosphorylated by Akt in vitro
[2]; GST-CT phosphorylated in vitro, detected with anti-P-Girdin antibody
  affinity for F-actin after phosphorylation by Akt: did not attenuate
[3]
  binding to PI(3)P: bound to neither
[4]
  binding to PI(4)P: bound to neither
